Read-outs that look alike come from different tables or passages of the source.
What was measured:
L-M cells = assay: LM-cells cytolytic assay (MTT); type: cell-based; conditions: actinomycin D, 20 h, murine proteins
Excerpt: FIG. 8. Biochemical and biological characterization of murine S-NGR-TNF and NGR-TNF. A) SDS-PAGE under reducing (βMe +) and non-reducing conditions (βMe -) of murine S-NGR-TNF, NGR-TNF and TNF. Arrows: bands corresponding to monomeric subunits (mon) and reducible dimers (dim). B) Representative mass spectra of murine NGR-TNF, TNF and S-NGR-TNF as determined by a Q Exactive HF mass spectrometer. Expected average masses are shown. C) Cytotoxic activity of TNF, NGR-TNF and S-NGR-TNF against L-M cells. L-M cells were incubated in DMEM medium supplemented with 2 mM glutamine, 100 U/ml penicillin, 100 µg/ml streptomycin, 0.25 µg/ml amphotericin-B, 10% fetal bovine serum, 2 µg/ml actinomycin D and TNF, NGR-TNF or S-NGR-TNF at the indicated doses (20 h at 37° C., 5% CO2). Cell viability was quantified by standard 3-(4,5-dimethylthiazol-2-yl)-2,5-diphenyltetrazolium bromide (MTT) assay. D) Binding of TNF, NGR-TNF and S-NGR-TNF to sTNF-R1 (Etanercept). Microtiterplates were precoated with or without the indicated amount of sTNF-R1 (for 16 h), washed with PBS, blocked with PBS containing 3% milk, 1% BSA (binding buffer, 1 h) and incubated with the indicated amounts of TNF, NGR-TNF or S-NGR-TNF diluted in binding buffer (for 1.5 h). The binding of each protein to sTNF-R1 was then detected using a polyclonal anti-murine TNF (IP301, 5 µg/ml in binding buffer, 1 h) followed by a polyclonal goat anti-rabbit antibody conjugated with horseradish peroxidase (1:1000 in binding buffer, 1 h) and o-phenylendiammine as chromogenic substrate.
To assess whether the addition of a serine residue to NGR-TNF affects its capability to recognize the TNF receptors and, consequently, its biological activity, inventors then analyzed the cytotoxic activity of TNF, NGR-TNF and S-NGR-TNF in the LM-cells cytolytic assay.

[1] = tested on: endothelial EA.hy926 cells; assay: EA.hy926 endothelial cell adhesion assay on protein-coated microtiterplates; type: cell-based
Protocol: FIG. 12. […] A) Adhesion of endothelial EA.hy926 cells to 96-wells microtiterplates coated with different amounts of murine TNF, NGR-TNF and S-NGR-TNF in 150 mM sodium chloride, 50 mM sodium phosphate buffer, pH 7.4 (PBS) (16 h). Each well was blocked with 2% BSA in PBS containing calcium chloride and magnesium chloride (DPBS, 30 min), seeded with 40.000 endothelial EA.hy926 cells in DPBS supplemented with 0.1% BSA (DPBS-B), and left to incubate for 2 h at 37° C., 5% CO2. After washing with DMEM-B, adherent cells were stained with crystal violet and quantified by spectrophotometric measurements at 570 nm. B) Microtiterplates pre-coated with 1 µg/ml of murine NGR-TNF or S-NGR-TNF in PBS (for 16 h) were incubated 0.1 M ammonium bicarbonate buffer, pH 8.5 (Ambic) at 37° C. for the indicated time to promote NGR deamidation. EA.hy926 cell adhesion assay was then performed as described above.
This behavior likely reflects a further improvement in the CNGRCG (SEQ ID NO: 1) stability when fused to TNF.

[2] = tested on: RMA-T lymphoma-bearing mice; type: in vivo; conditions: high dose 2 µg and 6 µg
Protocol: FIG. 13. […] A) Effect of high-dose murine S-NGR-TNF or NGR-TNF on the body weight and tumor volume of RMA-T lymphoma- bearing mice. Six C57BL/6 mice (6-7 weeks old, weighing 18-20 g) were challenged with subcutaneous injection in the left flank of 5 ×10^4 RMA-T cells. Mice bearing RMA lymphomas (6 per group) were treated at day 11 after tumor implantation with 2 µg and 6 µg of murine NGR-TNF or S-NGR-TNF in 0.9% sodium chloride, containing 100 µg/ml endotoxin-free human albumin (i.p.) as indicated (arrows). Animal weights and tumor growth were monitored as indicated. B) Effect of melphalan alone or in combination with low-dose murine S-NGR-TNF on the body weight of RMA-T lymphoma-bearing mice.
To assess the impact of the additional serine residue added to the N-terminus of NGR-TNF on its toxicity and anti-tumor activity inventors injected high-dose NGR-TNF or S-NGR-TNF to mice bearing subcutaneous RMA-T lymphomas (n=6) and evaluated the loss of animal weight. […] Three days later the mice regained the original weight.

WEHI-164 fibrosarcoma = assay: Low-dose treatment in subcutaneous WEHI-164 fibrosarcoma murine model; type: in vivo
Protocol: FIG. 14. […] Balb/c mice (6-7 weeks old, weighing 18-20 g) were injected, s.c., with 1.5×10^6 WEHI-164 cells in the left flank and treated 5 days after tumor implantation (i.p.) with 25 or 50 pg of murine NGR-TNF or S-NGR-TNF in 0.9% sodium chloride, containing 100 µg/ml endotoxin-free human serum albumin (arrows). A) Tumor volumes after treatment (mean±SE, 6 mice per group). B) Tumor weight at day 15 (cumulative data of the two groups treated with 25 and 50 pg of drugs). *, P<0.05, **P<0.01 by unpaired t test of the area under the curve for each tumor (GraphPad Prism software).
To assess whether the addition of the Ser residue to NGR-TNF might affect its anti-tumor activity at low dose, inventors then analyzed the therapeutic activity of NGR-TNF and S-NGR-TNF (25 or 50 pg, i.p.) using the subcutaneous WEHI-164 fibrosarcoma murine model.

RMA lymphoma = type: in vivo, mice
Protocol: FIG. 15. […] C57BL/6 mice (6-7 weeks old, weighing 18-20 g) were challenged with subcutaneous injection in the left flank of 7×10^4 RMA cells. Mice bearing RMA lymphomas (6 per group) were treated 10-11 days (after tumor implantation with 100 pg of murine NGR-TNF or S-NGR-TNF (i.p.). Two hours later, the mice were injected with the indicated dose of melphalan (i.p.). All proteins were diluted with 0.9% sodium chloride, containing 100 µg/ml endotoxin-free human albumin. Tumor growth was monitored daily by measuring the tumors with calipers. A-B) Tumor volume change of two independent experiments are shown (mean±SE). […] C) Tumor bearing-animals were treated at day 10 after tumor implantation as indicated above using the indicated dose of S-NGR-TNF and the generic preparation of melphalan (Melphalan-Tillomed, from Tillomed Italia). RMA tumor weight at day 20 are shown (mean±SE). *, P<0.05, **P<0.01 by unpaired t test analysis with the GraphPad Prism software.
Effect of melphalan alone or in combination with low-dose murine S-NGR-TNF on the body weight and tumor growth of RMA-T lymphoma-bearing mice. Six tumor-bearing mice were injected with the indicated doses of S-NGR-TNF (i.p) and, two hours later, with the generic preparation of melphalan (Melphalan-Tillomed) (i.p.).
Finally, to assess whether low-dose S-NGR-TNF can exert synergistic effects with chemotherapy, as previously observed for NGR-TNF, inventors performed in vivo experiments with S-NGR-TNF and NGR-TNF in combination with melphalan, a chemotherapeutic drug, using the murine RMA lymphoma model (FIG. 15).

GL261 glioblastoma [3] = type: in vivo, mice; conditions: i.p., 5 ng/kg at day 7, 19 and 31
Excerpt: Effect of S-NGR-mTNF on the […] glioblastoma growth and animal body weight. C57BL/6J mice (9 weeks old, weighing 18-21 g) were intracranially implanted with 2.5 × 10^4 GL21-Luc2 cells.
C) Kaplan-Maier curves of vehicle and S-NGR-mTNF.
Inventors next investigated the antitumor activity of murine S-NGR-TNF (S-NGR-mTNF) in the GL261 glioblastoma model, one of the most frequently used syngeneic murine glioma models. To this aim, inventors have exploited GL261 cells genetically engineered to express luciferase (GL261-luc2). This allows in vivo visualization of tumors growth and response to treatment within the brain by bioluminescence imaging.

GL261 glioblastoma [4] = tested on: GL261 glioblastoma
Protocol: Mice bearing GL21-Luc2 glioblastomas (9-10 per group) were treated at day 7, 14 and 21 after tumor implantation with the S-NGR-mTNF (5 ng/kg, about 100 pg/mouse, i.p.). Two hours later, mice were injected with the indicated dose of doxorubicin (doxo, i.p.). […] Tumor growth was monitored by measuring the tumor-associated bioluminescence at day 7, 11, 14, 18, 21, and 28 after the administration of luciferin.
Bioluminescent murine glioma GL21-Luc2 cells, engineered to stably express the firefly luciferase, were orthotopically implanted in C57BL/6J mice (9 weeks-old) into the right striatum (2.5x10^4 cells/mouse). Pharmacological treatments started on the 7 days after tumor cell implantation. Mice were injected, i.p., with 5 ng/Kg dose of S-NGR-TNF (about 100 pg/mice, diluted in 0.9% sodium chloride solution containing 100 µg/ml of HSA), or in combination with doxorubicin (5 mg/Kg) administered 2 h later. Tumor growth was monitored by non-invasive bioluminescence imaging using a PhotonImager RT system (Biospace Lab, France) after luciferase substrate administration (i.p.).
The antitumor activity of S-NGR-mTNF was then investigated in combination of doxorubicin (doxo), a chemotherapeutic drug, in the GL261-luc2 model. To this aims, tumor bearing-animal were treated at day 7, 14 and 21 post tumor implantation with S-NGR-mTNF (5 ng/kg, i.p.) and 2 h later with doxo (i.p., 5 mg/kg, corresponding to about 100 µg/mouse). In parallel, control mice were treated with vehicle or doxo alone.

B1: S-NGR-TNF: Murine SCNGRCG-TNF fusion protein: serine residue added to the N-terminus of NGR-TNF (SEQ ID NO: 26) (protein)
chain: SCNGRCGLRSSSQNSSDKPVAHVVANHQVEEQLEWLSQRANALLANGMDLKDNQLVVPADGLYLVYSQVLFKGQGCPDYVLLTHTVSRFAISYQEKVNLLSAVKSPCPKDTPEGAELKPWYEPIYLGGVFQLEKGDQLSAEVNLPKYLDFAESGQVYFGVIAL
L-M cells
  EC50 cytotoxic activity: very similar
[1]; plates coated in PBS, no forced deamidation
  EA.hy926 cell adhesion to coated plates: not
[1]; plates treated with 0.1 M ammonium bicarbonate buffer, pH 8.5, compared to NGR-TNF
  EA.hy926 cell adhesion after forced deamidation: a longer time of incubation under deamidation conditions was necessary
[2]
  antitumor effects compared to NGR-TNF: slightly stronger antitumor effects
WEHI-164 fibrosarcoma; 25 pg
  anti-tumor effects compared to 25 pg of NGR-TNF: slightly stronger anti-tumor effects
WEHI-164 fibrosarcoma; 25 or 50 pg, i.p.
  toxicity: No evidence of toxicity
  tumor growth: delayed tumor growth to similar extent
RMA lymphoma; 100 pg i.p., melphalan two hours later
  efficacy of melphalan in combination: could enhance the efficacy of melphalan
RMA lymphoma; S-NGR-TNF 100 pg with melphalan 50 µg
  antitumor activity of combination: significant increase of antitumor activity
RMA lymphoma; in combination with melphalan
  antitumor effect compared to NGR-TNF: slightly stronger antitumor effect
GL261 glioblastoma [3]
  gain of body weight of cured animals: about +15%
  tumor growth: significantly delayed tumor growth
GL261 glioblastoma [4]; S-NGR-mTNF 5 ng/kg i.p. and 2 h later doxo 5 mg/kg, day 7, 14, 21
  mice with delayed tumor growth: 55%
GL261 glioblastoma [4]; S-NGR-mTNF 5 ng/kg with doxo 5 mg/kg
  toxicity of doxo, judged from loss of animal weight: did not exacerbate the toxicity of doxo
GL261 glioblastoma [4]; S-NGR-mTNF 5 ng/kg with doxo 5 mg/kg (combination therapy)
  tumor growth: could significantly delay tumor growth
